# Biological target: human Fc (human)
# Test: ELISA, negative control
row,optical density,Binder
1,0.216 OD,"374_D03 (antibody, V domains shown) VH: EVQLLESGGGLVQPGGSLRLSCAASGFTFDSYSMNWVRQAPGKGLEWVAGINYNGGYKSYADSVKGRFTISRDNSKNTLYLQMNSLRAEDTAVYYCARGANWHDTHLDYWGQGTLVTVSS VL: DIQMTQSPSSLSASVGDRVTITCRASQSIVTYLNWYQQKPGKAPKLLIYAATSRASGVPSRFSGSGSGTDFTLTISSLQPEDFATYYCQQSYDTPLTFGGGTKVEIK"
2,0.165 OD,"374_E10 (antibody, V domains shown) VH: EVQLLESGGGLVQPGGSLRLSCAASGFTFSSYSMNWVRQAPGKGLEWVSGINYNGGYKSYADSVKGRFTISRDNSKNTLYLQMNSLRAEDTAVYYCARGANWHDTALDYWGQGTLVTVSS VL: DIQMTQSPSSLSASVGDRVTITCRASQSILSYLNWYQQKPGKAPKLLIYAATSRHSGVPSRFSGSGSGTDFTLTISSLQPEDFATYYCQQSYDSPLTFGGGTKVEIK"
3,0.329 OD,"374_D10 (antibody, V domains shown) VH: EVQLLESGGGLVQPGGSLRLSCAASGFTFSSYGMHWVRQAPGKGLEWVASINYNGGYTSYADSVKGRFTISRDNSKNTLYLQMNSLRAEDTAVYYCARGANWHDTHLDYWGQGTLVTVSS VL: DIQMTQSPSSLSASVGDRVTITCRASQSILTYVNWYQQKPGKAPKLLIYAATSRASGVPSRFSGSGSGTDFTLTISSLQPEDFATYYCQQSYDNPLTFGGGTKVEIK"
4,0.177 OD,"374_E12 (antibody, V domains shown) VH: EVQLLESGGGLVQPGGSLRLSCAASGFTFSSYSMNWVRQAPGKGLEWVSGINYNGGYKSYADSVKGRFTISRDNSKNTLYLQMNSLRAEDTAVYYCARGANWHDTALDYWGQGTLVTVSS VL: DIQMTQSPSSLSASVGDRVTITCRASQSILSYLNWYQQKPGKAPKLVIYAATSRASGVPSRFSGSGSGTDFTLTISSLQPEDFATYYCQQSYDNPLTFGGGTKVEIK"
5,0.171 OD,"374_D05 (antibody, V domains shown) VH: EVQLLESGGGLVQPGGSLRLSCAASGFTFDSYSMNWVRQAPGKGLEWVSGINYNSGYTGYADSVKGRFTISRDNSKNTLYLQMNSLRAEDTAVYYCARGANWHDTHLDYWGQGTLVTVSS VL: DIQMTQSPSSLSASVGDRVTITCRASQSILTYLNWYQQKPGKAPKLLIYAATSRASGVPSRFSGSGSGTDFTLTISSLQPEDFATYYCQQSYDTPLTFGGGTKVEIK"
6,0.176 OD,"374_D07 (antibody, V domains shown) VH: EVQLLESGGGLVQPGGSLRLSCAASGFTFDSYSMNWVRQAPGKGLEWVSGINYNSGYKSYADSVKGRFTISRDNSKNTLYLQMNSLRAEDTAVYYCARGANWHDTALDYWGQGTLVTVSS VL: DIQMTQSPSSLSASVGDRVTITCRASQSIVSYLNWYQQKPGKAPKLVIYAATSLASGVPSRFSGSGSGTDFTLTISSLQPEDFATYYCQQSYNSPLTFGGGTKVEIK"
7,0.172 OD,"374_D06 (antibody, V domains shown) VH: EVQLLESGGGLVQPGGSLRLSCAASGFTFSSYSMNWVRQAPGKGLEWVSGINYNGGYTSYADSVKGRFTISRDNSKNTLYLQMNSLRAEDTAVYYCARGANWHDTALDYWGQGTLVTVSS VL: DIQMTQSPSSLSASVGDRVTITCRASQSILSYVNWYQQKPGKAPKLVIYAATSRASGVPSRFSGSGSGTDFTLTISSLQPEDFATYYCQQSYDSPLTFGGGTKVEIK"

# The next lines start with the binder.
row,Binder,optical density
1,"368_A06 (antibody, V domains shown) VH: EVQLLESGGGLVQPGGSLRLSCAASGFTFDSYSMHWVRQAPGKGLEWVAGINYNSGYKGYADSVKGRFTISRDNSKNTLYLQMNSLRAEDTAVYYCARAANWHDTHLDYWGQGTLVTVSS VL: DIQMTQSPSSLSASVGDRVTITCRASQSILSYVNWYQQKPGKAPKLLIYAATSRHSGVPSRFSGSGSGTDFTLTISSLQPEDFATYYCQQSYNSPLTFGGGTKVEIK",0.483 OD
2,"368_A12 (antibody, V domains shown) VH: EVQLLESGGGLVQPGGSLRLSCAASGFTFDSYSMHWVRQAPGKGLEWVSSINYNSGYKGYADSVKGRFTISRDNSKNTLYLQMNSLRAEDTAVYYCARAANWHDTALDYWGQGTLVTVSS VL: DIQMTQSPSSLSASVGDRVTITCRASQSILTYLNWYQQKPGKAPKLVIYAATSRASGVPSRFSGSGSGTDFTLTISSLQPEDFATYYCQQSYDSPLTFGGGTKVEIK",0.425 OD
3,"374_B08 (antibody, V domains shown) VH: EVQLLESGGGLVQPGGSLRLSCAASGFTFDSYSMNWVRQAPGKGLEWVAGINYNGGYTSYADSVKGRFTISRDNSKNTLYLQMNSLRAEDTAVYYCARGANWHDTALDYWGQGTLVTVSS VL: DIQMTQSPSSLSASVGDRVTITCRASQSIVSYVNWYQQKPGKAPKLLIYAATSRHSGVPSRFSGSGSGTDFTLTISSLQPEDFATYYCQQSYELPLTFGGGTKVEIK",0.188 OD
4,"374_C12 (antibody, V domains shown) VH: EVQLLESGGGLVQPGGSLRLSCAASGFTFSSYSMNWVRQAPGKGLEWVAGINYNGGYKSYADSVKGRFTISRDNSKNTLYLQMNSLRAEDTAVYYCARGANWHDTALDYWGQGTLVTVSS VL: DIQMTQSPSSLSASVGDRVTITCRASQSILTYLNWYQQKPGKAPKLVIYAATSRASGVPSRFSGSGSGTDFTLTISSLQPEDFATYYCQQSDNSPLTFGGGTKVEIK",0.308 OD
5,"374_B05 (antibody, V domains shown) VH: EVQLLESGGGLVQPGGSLRLSCAASGFTFDSYSMNWVRQAPGKGLEWVSGINYNSGYTSYADSVKGRFTISRDNSKNTLYLQMNSLRAEDTAVYYCARGANWHDTALDYWGQGTLVTVSS VL: DIQMTQSPSSLSASVGDRVTITCRASQSIVSYLNWYQQKPGKAPKLLIYAATSRHSGVPSRFSGSGSGTDFTLTISSLQPEDFATYYCQQSYESPLTFGGGTKVEIK",0.168 OD
6,"374_C09 (antibody, V domains shown) VH: EVQLLESGGGLVQPGGSLRLSCAASGFTFDSYGMNWVRQAPGKGLEWVSSINYNGGYKGYADSVKGRFTISRDNSKNTLYLQMNSLRAEDTAVYYCARGANWHDTHLDYWGQGTLVTVSS VL: DIQMTQSPSSLSASVGDRVTITCRASQSIVSYLNWYQQKPGKAPKLVIYAATSRASGVPSRFSGSGSGTDFTLTISSLQPEDFATYYCQQSYELPLTFGGGTKVEIK",0.154 OD
7,"374_C01 (antibody, V domains shown) VH: EVQLLESGGGLVQPGGSLRLSCAASGFTFDSYGMNWVRQAPGKGLEWVSGINYNSGYKSYADSVKGRFTISRDNSKNTLYLQMNSLRAEDTAVYYCARGANWHDTALDYWGQGTLVTVSS VL: DIQMTQSPSSLSASVGDRVTITCRASQSILTYLNWYQQKPGKAPKLLIYAATSRASGVPSRFSGSGSGTDFTLTISSLQPEDFATYYCQQSYETPLTFGGGTKVEIK",0.167 OD
8,"374_B10 (antibody, V domains shown) VH: EVQLLESGGGLVQPGGSLRLSCAASGFTFSSYSMNWVRQAPGKGLEWVSSINYNSGYTSYADSVKGRFTISRDNSKNTLYLQMNSLRAEDTAVYYCARGANWHDTHLDYWGQGTLVTVSS VL: DIQMTQSPSSLSASVGDRVTITCRASQSILTYVNWYQQKPGKAPKLVIYAATSLASGVPSRFSGSGSGTDFTLTISSLQPEDFATYYCQQSYDTPLTFGGGTKVEIK",0.17 OD
9,"374_B03 (antibody, V domains shown) VH: EVQLLESGGGLVQPGGSLRLSCAASGFTFDSYSMNWVRQAPGKGLEWVSGINYNGGYTSYADSVKGRFTISRDNSKNTLYLQMNSLRAEDTAVYYCARGANWHDTALDYWGQGTLVTVSS VL: DIQMTQSPSSLSASVGDRVTITCRASQSILTYLNWYQQKPGKAPKLVIYAATSRASGVPSRFSGSGSGTDFTLTISSLQPEDFATYYCQQSYDSPLTFGGGTKVEIK",0.166 OD

# Reference: patent US20210380703A1
